Source: the supplement of paper PMC7125110
± gives the standard error. For part of these data: This sample holds only a part of the variants without activity.

B1: glmS ribozyme (parent)
chain: AUAAAAGCGCCAGAACUACAGAAAUGUAGUUGACGAGGAGGAGGUUUAUCGAAUUUUCGGCGGAUGCCUCCAAA

How the values were obtained:
Conditions in all cases: with glucosamine-6-phosphate
glucosamine-6-phosphate [1] = variants of: B1; assay: kcat; higher = faster cleavage; RNA array
In short: (§1)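 Barcoded ribozyme variants were transcribed in situ on sequenced MiSeq chips by E. coli RNA polymerase. At 37 °C, a hybridised Cy3 probe tracked them while glucosamine-6-phosphate (40 μM to 10 mM) in HEPES/KCl/Mg(OAc)2 buffer flowed in and tiles were imaged over ~14 h. Per-tile medians of signals normalised to baseline and to non-cleaving reference variants were fit to one- or two-exponential decays, giving kobs. kcat and KM came from weighted Michaelis–Menten fits across concentrations.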

glucosamine-6-phosphate [2] = variants of: B1; assay: self-cleavage kobs at 160 uM GlcN6P; higher = faster cleavage; RNA array
In short: as §1

glucosamine-6-phosphate [3] = variants of: B1; assay: self-cleavage kobs at 2500 uM GlcN6P; higher = faster cleavage; RNA array
In short: as §1

glucosamine-6-phosphate [4] = variants of: B1; assay: self-cleavage kobs at 10000 uM GlcN6P; higher = faster cleavage; RNA array
In short: as §1

glucosamine-6-phosphate [5] = variants of: B1; assay: self-cleavage kobs at 40 uM GlcN6P; higher = faster cleavage; RNA array
In short: as §1

glucosamine-6-phosphate [6] = variants of: B1; assay: self-cleavage kobs at 640 uM GlcN6P; higher = faster cleavage; RNA array
In short: as §1

glucosamine-6-phosphate [7] = variants of: B1; assay: KM; higher = weaker cofactor use; RNA array
In short: as §1

Variant	kcat (glucosamine-6-phosphate [1]) [s⁻¹]	self-cleavage kobs at 160 uM GlcN6P (glucosamine-6-phosphate [2]) [s⁻¹]	self-cleavage kobs at 2500 uM GlcN6P (glucosamine-6-phosphate [3]) [s⁻¹]	self-cleavage kobs at 10000 uM GlcN6P (glucosamine-6-phosphate [4]) [s⁻¹]	self-cleavage kobs at 40 uM GlcN6P (glucosamine-6-phosphate [5]) [s⁻¹]	self-cleavage kobs at 640 uM GlcN6P (glucosamine-6-phosphate [6]) [s⁻¹]	KM (glucosamine-6-phosphate [7]) [µM]
AUAAAAGCGCCAGAACUACAGAAAUGUAGUUGACGAGGAGGAGGUUUCUCGAAUUUUCGGCGGAUACCUCCAAA [A48C G66A]	0.000159 ± 2.8e-05	< 1e-05	8.27e-05 ± 1.8e-05	0.000121 ± 1.4e-05			
AUAAAAGCGCCAGAACUACAGAAAUGUAGUUGACGAGGAGGAGGUUGAUCGAAUUUUCGGCGGAUGGCUCCAAA [U47G C67G]	0.000689 ± 0.00022	0.000105 ± 1.9e-05	0.000429 ± 5.2e-05	0.000816 ± 9.6e-05	7.66e-05 ± 1.4e-05	0.000248 ± 2.3e-05	
AUAAAAGCGCCAGAACUACAGAAAUGUAGUUGACGAGGAGGAGGUUGAGCGAAUUUUCGGCGGAUGCCUCCAAA [U47G U49G]	8.66e-05 ± 9.3e-06			8.15e-05 ± 1.2e-05			
AUAAAAGCGCCAGAACUACAGAAAUGUAGUUGACGAGGAGGAGGUUUCUCGAAUUUUCGGCGGAUGCUUCCAAA [A48C C68U]	8.75e-05 ± 8.5e-06		6.35e-05 ± 1.3e-05	7.54e-05 ± 1.1e-05	< 1e-05		1310 ± 540
AUAAAAGCGCCAGAACUACAGAAAUGUAGUUGACGAGGAGGAGGUUGAUCGAAUGUUCGGCGGAUGCCUCCAAA [U47G U55G]	0.00601 ± 0.0021		0.00249 ± 0.001	0.00706 ± 0.0012	0.000247 ± 4.9e-05	0.00195 ± 0.00043	
AUAAAAGCGCCAGAACUACAGAAAUGUAGUUGACGAGGAGGAGGUUGAUCGAAUCUUCGGCGGAUGCCUCCAAA [U47G U55C]	0.00713 ± 0.0025	0.00147 ± 0.00034	0.00386 ± 0.0012	0.00759 ± 0.0024	0.000233 ± 4.3e-05	0.00372 ± 0.00087	1030 ± 470
AUAAAAGCGCCAGAACUACAGAAAUGUAGUUGACGAGGAGGAGGUUGAUAGAAUUUUCGGCGGAUGUCUCCAAA [U47G C50A C67U]	4.13e-05 ± 1.8e-05		7.44e-05 ± 3.1e-05			6.02e-05 ± 2.6e-05	
AUAAAAGCGCCAGAACUACAGAAAUGUAGUUGACGAGGAGGAGGUUUCUCGACUUUUCGGCGGAUGCCUCCAAA [A48C A53C]	9.8e-05 ± 1.5e-05		3.99e-05 ± 1.2e-05	6.89e-05 ± 1.7e-05			4010 ± 1400
AUAAAAGCGCCAGAACUACAGAAAUGUAGUUGACGAGGAGGAGGUUUCUCGAUUUUUCGGCGGAUGCCUCCAAA [A48C A53U]	0.000244 ± 1.5e-05		0.000131 ± 2e-05	0.000191 ± 3e-05		4.84e-05 ± 1.1e-05	2410 ± 320
AUAAAAGCGCCAGAACUACAGAAAUGUAGUUGACGAGGAGGAGGUUGAUCGAAAUUUCGGCGGAUGCCUCCAAA [U47G U54A]	0.00987 ± 0.0039		0.00522 ± 0.0019	0.00946 ± 0.0015	0.000306 ± 4.7e-05	0.00157 ± 0.00052	
AUAAAAGCGCCAGAACUACAGAAAUGUAGUUGACGAGGAGGAGGUUGAUCGAAGUUUCGGCGGAUGCCUCCAAA [U47G U54G]	0.0073 ± 0.0022	0.000915 ± 0.00023	0.0063 ± 0.0018	0.00685 ± 0.0015	0.00053 ± 8.3e-05	0.00367 ± 0.00086	724 ± 320
AUAAAAGCGCCAGAACUACAGAAAUGUAGUUGACGAGGAGGAGGUUGAUCGAAUUUUCUGCGGAUGCCUCCAAA [U47G G59U]	2.47e-05 ± 4.4e-06		3.31e-05 ± 1.7e-05	2.13e-05 ± 1e-05			
AUAAAAGCGCCAGAACUACAGAAAUGUAGUUGACGAGGAGGAGGUUUCUCGAAGUUUCGGCGGAUGCCUCCAAA [A48C U54G]	0.000498 ± 0.00012		0.000222 ± 2.4e-05	0.000402 ± 5e-05		0.000114 ± 1.4e-05	2740 ± 1200
AUAAAAGCGCCAGAACUACAGAAAUGUAGUUGACGAGGAGGAGGUUGAUCGAAUUUUUGGCGGAUGCCUCCAAA [U47G C58U]	8.14e-05 ± 1.6e-05		3.07e-05 ± 1.2e-05	6.32e-05 ± 8.6e-06			
AUAAAAGCGCCAGAACUACAGAAAUGUAGUUGACGAGGAGGAGGUUGAUCGAAUUUUCGGCGGGUGCCUCCAAA [U47G A64G]	0.0089 ± 0.0018	0.000742 ± 0.00017	0.00542 ± 0.0013	0.00828 ± 0.0015	0.000278 ± 4.5e-05	0.00203 ± 0.00049	1570 ± 460
AUAAAAGCGCCAGAACUACAGAAAUGUAGUUGACGAGGAGGAGGUUGAUCGAAUUUUCGGCGGUUGCCUCCAAA [U47G A64U]	2.76e-05 ± 3.5e-06						
AUAAAAGCGCCAGAACUACAGAAAUGUAGUUGACGAGGAGGAGGUUGAUCGAAUUUUCGGCGGAUGCCUCGAAA [U47G C71G]	0.00028 ± 1.5e-05	5.19e-05 ± 7.8e-06	0.000205 ± 2.8e-05	0.000265 ± 2.4e-05		0.000146 ± 1.7e-05	685 ± 85
